In US20230270828A1, “COMPOSITION FOR USE IN THE TREATMENT OF VIRAL INFECTIONS” (BICT S.R.L., priority 2020, published 2023):
Like-named read-outs stand apart in the source and are kept apart here. Marks after values point to notes of the source that are not given here.

What was measured:
[1] = tested on: SARS-CoV-2; format: cell-based
[2] = tested on: Vero cells (Monkey Kidney Epithelial Cells); settings: Vero cells

B1: lactoferrin (protein, UniProt P24627 20-708, looked up)
Lactotransferrin: APRKNVRWCTISQPEWFKCRRWQWRMKKLGAPSITCVRRAFALECIRAIAEKKADAVTLDGGMVFEAGRDPYKLRPVAAEIYGTKESPQTHYYAVAVVKKGSNFQLDQLQGRKSCHTGLGRSAGWIIPMGILRPYLSWTESLEPLQGAVAKFFSASCVPCIDRQAYPNLCQLCKGEGENQCACSSREPYFGYSGAFKCLQDGAGDVAFVKETTVFENLPEKADRDQYELLCLNNSRAPVDAFKECHLAQVPSHAVVARSVDGKEDLIWKLLSKAQEKFGKNKSRSFQLFGSPPGQRDLLFKDSALGFLRIPSKVDSALYLGSRYLTTLKNLRETAEEVKARYTRVVWCAVGPEEQKKCQQWSQQSGQNVTCATASTTDDCIVLVLKGEADALNLDGGYIYTAGKCGLVPVLAENRKSSKHSSLDCVLRPTEGYLAVAVVKKANEGLTWNSLKDKKSCHTAVDRTAGWNIPMGLIVNQTGSCAFDEFFSQSCAPGADPKSRLCALCAGDDQGLDKCVPNSKEKYYGYTGAFRCLAEDVGDVAFVKNDTVWENTNGESTADWAKNLNREDFRLLCLDGTRKPVTEAQSCHLAVAPNHAVVSRSDRAAHVKQVLLHQQALFGKNGKNCPDKFCLFKSETKNLLFNDNTECLAKLGGRPTYEEYLGTEYVTAIANLKKCSTSPLLEACAFLTR
notes: multifunctional globular protein of the transferrin family, 80 KDa
[1]; 0.59 mg/ml, scheme A (preincubation of virus with compound)
  Mean ΔCt: 0.23
[1]; 0.59 mg/ml, scheme B+C (during and after inoculum)
  Mean ΔCt: 0.04
[1]; 0.59 mg/ml, scheme B+C+D (during, after inoculum and repeated)
  Mean ΔCt: −0.25
[1]; 1.17 mg/ml, scheme A (preincubation of virus with compound)
  Mean ΔCt: 0.76
[1]; 1.17 mg/ml, scheme B+C (during and after inoculum)
  Mean ΔCt: −0.08
[1]; 1.17 mg/ml, scheme B+C+D (during, after inoculum and repeated)
  Mean ΔCt: −0.21
[1]; 2.34 mg/ml, scheme A (preincubation of virus with compound)
  Mean ΔCt: 0.42
[1]; 2.34 mg/ml, scheme B+C (during and after inoculum)
  Mean ΔCt: −0.28
[1]; 2.34 mg/ml, scheme B+C+D (during, after inoculum and repeated)
  Mean ΔCt: −0.47
[1]; 4.68 mg/ml, scheme A (preincubation of virus with compound)
  Mean ΔCt: 0.25
[1]; 4.68 mg/ml, scheme B+C (during and after inoculum)
  Mean ΔCt: −1.52
[1]; 4.68 mg/ml, scheme B+C+D (during, after inoculum and repeated)
  Mean ΔCt: −2.47
[2]; 72 h, MTT
  CC10: >4.68§ mg/ml
  CC50: >4.68§ mg/ml
[2]; based on CC50/CC10 data
  maximum nontoxic concentration (assumed): 4.68 mg/mL
